B1: Aurora kinase A (Homo sapiens), O14965 (parent)
chain: MDRSKENCISGPVKATAPVGGPKRVLVTQQFPCQNPLPVNSGQAQRVLCPSNSSQRIPLQAQKLVSSHKPVQNQKQKQLQATSVPHPVSRPLNNTQKSKQPLPSAPENNPEEELASKQKNEESKKRQWALEDFEIGRPLGKGKFGNVYLAREKQSKFILALKVLFKAQLEKAGVEHQLRREVEIQSHLRHPNILRLYGYFHDATRVYLILEYAPLGTVYRELQKLSKFDEQRTATYITELANALSYCHSKRVIHRDIKPENLLLGSAGELKIADFGWSVHAPSSRRTTLCGTLDYLPPEMIEGRMHDEKVDLWSLGVLCYEFLVGKPPFEANTYQETYKRISRVEFTFPDFVTEGARDLISRLLKHNPSQRPMLREVLEHPWITANSSKPSNCQNKESASKQS

Variants of: B1
Conditions: with plk1_human PLK1, P53350
Sequence of plk1_human PLK1, P53350 (P53350 whole entry): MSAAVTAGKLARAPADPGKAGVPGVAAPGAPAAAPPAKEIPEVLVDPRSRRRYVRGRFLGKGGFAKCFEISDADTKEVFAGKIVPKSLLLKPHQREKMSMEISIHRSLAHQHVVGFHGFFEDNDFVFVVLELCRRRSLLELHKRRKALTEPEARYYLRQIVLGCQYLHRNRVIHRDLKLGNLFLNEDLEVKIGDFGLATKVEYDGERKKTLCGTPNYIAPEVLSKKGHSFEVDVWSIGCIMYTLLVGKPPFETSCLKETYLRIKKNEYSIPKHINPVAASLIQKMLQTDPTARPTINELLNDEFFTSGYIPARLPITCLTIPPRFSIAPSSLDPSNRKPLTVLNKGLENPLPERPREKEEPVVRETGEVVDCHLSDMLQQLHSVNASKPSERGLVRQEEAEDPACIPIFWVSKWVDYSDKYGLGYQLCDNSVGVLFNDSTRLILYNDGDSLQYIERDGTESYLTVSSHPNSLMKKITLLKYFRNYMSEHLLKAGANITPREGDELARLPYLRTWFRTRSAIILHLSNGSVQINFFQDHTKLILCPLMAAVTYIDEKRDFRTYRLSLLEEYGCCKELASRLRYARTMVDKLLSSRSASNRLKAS

Row | effect of a mutation on the interaction | Variant
1 | disrupting interaction | K162R

Reference: IntAct's records for PubMed 18615013
